Measurements: the supplement of paper PMC7125110
± gives the standard error. For some of these results: Variants at the floor of the assay were thinned out.

B1: glmS ribozyme (parent)
chain: AUAAAAGCGCCAGAACUACAGAAAUGUAGUUGACGAGGAGGAGGUUUAUCGAAUUUUCGGCGGAUGCCUCCAAA

Tests used:
Conditions in all cases: with glucosamine-6-phosphate
glucosamine-6-phosphate [1] = variants of: B1; assay: kcat; higher = faster cleavage; RNA array
How it was run: (§1)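 Glucosamine-6-phosphate, from 40 μM to 10 mM in HEPES/KCl/Mg(OAc)2 buffer, was flowed over sequenced MiSeq chips carrying barcoded ribozyme variants transcribed in situ by E. coli RNA polymerase. A hybridised Cy3 probe tracked the variants at 37 °C as tiles were imaged over ~14 h. kobs, kcat and KM were obtained by fitting normalised per-tile medians to exponential decays and then applying weighted Michaelis–Menten fits across concentrations.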

glucosamine-6-phosphate [2] = variants of: B1; assay: self-cleavage kobs at 640 uM GlcN6P; higher = faster cleavage; RNA array
How it was run: as §1

glucosamine-6-phosphate [3] = variants of: B1; assay: self-cleavage kobs at 2500 uM GlcN6P; higher = faster cleavage; RNA array
How it was run: as §1

glucosamine-6-phosphate [4] = variants of: B1; assay: self-cleavage kobs at 10000 uM GlcN6P; higher = faster cleavage; RNA array
How it was run: as §1

glucosamine-6-phosphate [5] = variants of: B1; assay: KM; higher = weaker cofactor use; RNA array
How it was run: as §1

glucosamine-6-phosphate [6] = variants of: B1; assay: self-cleavage kobs at 40 uM GlcN6P; higher = faster cleavage; RNA array
How it was run: as §1

glucosamine-6-phosphate [7] = variants of: B1; assay: self-cleavage kobs at 160 uM GlcN6P; higher = faster cleavage; RNA array
How it was run: as §1

Variant | kcat (glucosamine-6-phosphate [1]) | self-cleavage kobs at 640 uM GlcN6P (glucosamine-6-phosphate [2]) | self-cleavage kobs at 2500 uM GlcN6P (glucosamine-6-phosphate [3]) | self-cleavage kobs at 10000 uM GlcN6P (glucosamine-6-phosphate [4]) | KM (glucosamine-6-phosphate [5]) | self-cleavage kobs at 40 uM GlcN6P (glucosamine-6-phosphate [6]) | self-cleavage kobs at 160 uM GlcN6P (glucosamine-6-phosphate [7])
U49G U56C | 0.000112 ± 1.1e-05 s⁻¹ | 7.28e-05 ± 2.5e-05 s⁻¹ | 0.000127 ± 2.5e-05 s⁻¹ | 0.000103 ± 1.2e-05 s⁻¹ | – | – | –
G62U C68U | 1.22e-05 ± 1.2e-06 s⁻¹ | < 1e-05 s⁻¹ | – | – | – | – | –
U54G A64U | 9.79e-05 ± 1.5e-05 s⁻¹ | 1.94e-05 ± 7.4e-06 s⁻¹ | 7.47e-05 ± 9.1e-06 s⁻¹ | 8.01e-05 ± 8e-06 s⁻¹ | – | – | –
G13A U56A A64G | 0.000331 ± 5.8e-05 s⁻¹ | 8.33e-05 ± 2.5e-05 s⁻¹ | 0.000158 ± 3e-05 s⁻¹ | 0.000291 ± 6.6e-05 s⁻¹ | 2310 ± 840 µM | – | –
G44U C67A | 0.0253 ± 0.0035 s⁻¹ | 0.00977 ± 0.0013 s⁻¹ | 0.0244 ± 0.0065 s⁻¹ | 0.0209 ± 0.0036 s⁻¹ | 1130 ± 210 µM | 0.000868 ± 0.0001 s⁻¹ | 0.00267 ± 0.00064 s⁻¹
U49G U69A | 4.14e-05 ± 1.7e-05 s⁻¹ | – | 8.22e-05 ± 2.2e-05 s⁻¹ | – | – | – | –
G29U G41C | 4.75e-05 ± 1.3e-05 s⁻¹ | – | – | 3.1e-05 ± 9e-06 s⁻¹ | – | – | –
U54C C67G | 0.000821 ± 0.00019 s⁻¹ | 0.000519 ± 7.3e-05 s⁻¹ | 0.000553 ± 8.6e-05 s⁻¹ | 0.00137 ± 0.00026 s⁻¹ | 534 ± 220 µM | 5.95e-05 ± 1.1e-05 s⁻¹ | 0.000179 ± 2.6e-05 s⁻¹
G41C U47G | 0.000713 ± 0.00028 s⁻¹ | – | 3.37e-05 ± 1.6e-05 s⁻¹ | 0.000117 ± 2.8e-05 s⁻¹ | – | – | –
A39C U56G | 0.00414 ± 0.0013 s⁻¹ | 0.000539 ± 6.5e-05 s⁻¹ | 0.00125 ± 0.00015 s⁻¹ | 0.00322 ± 0.00035 s⁻¹ | 4460 ± 1800 µM | 5.55e-05 ± 7.3e-06 s⁻¹ | 0.000133 ± 1.4e-05 s⁻¹
G44A U56G | 0.000224 ± 3.2e-05 s⁻¹ | 5.52e-05 ± 2.2e-05 s⁻¹ | 0.000188 ± 3.9e-05 s⁻¹ | 0.00019 ± 2.1e-05 s⁻¹ | – | – | –
A48U A52G | 1.32e-05 ± 2.9e-06 s⁻¹ | – | – | – | – | – | –
C16A C67A | 0.000254 ± 2.7e-05 s⁻¹ | 0.000123 ± 1.2e-05 s⁻¹ | 0.00021 ± 3.3e-05 s⁻¹ | 0.000248 ± 2.9e-05 s⁻¹ | 598 ± 150 µM | – | 6.97e-05 ± 1.3e-05 s⁻¹
G29U C50A G66U | 1.4e-05 ± 4.4e-06 s⁻¹ | – | – | – | – | – | –
U45A A53G | 0.0342 ± 0.011 s⁻¹ | 0.0131 ± 0.0026 s⁻¹ | – | 0.0473 ± 0.012 s⁻¹ | 692 ± 270 µM | 0.002 ± 0.00022 s⁻¹ | 0.00536 ± 0.0026 s⁻¹
G29C U65G | 0.00083 ± 0.00013 s⁻¹ | 0.000115 ± 2.7e-05 s⁻¹ | 0.000279 ± 7.3e-05 s⁻¹ | 0.000591 ± 0.00015 s⁻¹ | 4400 ± 1000 µM | – | –
G43U C67G | 0.00171 ± 0.00015 s⁻¹ | 0.000597 ± 8.6e-05 s⁻¹ | 0.00117 ± 0.0002 s⁻¹ | 0.00166 ± 0.00022 s⁻¹ | 1020 ± 150 µM | 7.18e-05 ± 1e-05 s⁻¹ | 0.00022 ± 6e-05 s⁻¹
